Experimental findings from publication doi:10.1101/2025.09.11.675134, “Biodistribution-Driven Discovery Identifies a Glycosidase-Cleavable Linker to Reprogram Radiotheranostics” (bioRxiv, 2025) are described below.

Read-outs that look alike come from different tables or passages of the source.

Series [1] is described as follows: Histopathology (H&E) after two-cycle therapy. It is filed as in vivo, athymic nu/nu mice. The procedure: To further assess tissue-level toxicity at the conclusion of the two-cycle therapy study, kidneys, livers, spleens, and tumors from representative mice were collected and evaluated histologically using hematoxylin and eosin (H&E) staining. Microscopic pathology was assessed and recorded in the MHL Pathology Database (Zaphod) according to a standardized five-point grading scale (normal, minimal, mild, moderate, marked). Terminology and criteria for pathological findings were consistent with the INHAND (International Harmonization of Nomenclature and Diagnostic Criteria) guidelines developed by the Society of Toxicologic Pathology.
At the conclusion of the two-cycle therapy study, kidneys, livers, spleens, and tumors from representative mice were collected and processed for histological evaluation using hematoxylin and eosin (H&E) staining. Microscopic pathology was assessed and recorded in the MHL Pathology Database (Zaphod) using a standardized five-point ordinal grading system (normal, minimal, mild, moderate, marked). Terminology and diagnostic criteria were consistent with the International Harmonization of Nomenclature and Diagnostic Criteria (INHAND) guidelines established by the Society of Toxicologic Pathology (https://www.toxpath.org/inhand.asp)([57]).

Series [2] is described as follows: Ex vivo biodistribution screen of 111In-labeled DOTA-TATE derivatives in normal mice. Further details: species or system athymic nude mice. The note with it: 2 h post-injection; for tissue uptake at 2 h: athymic nude, mouse, iv, 1 ug per mouse, total radioactivity, normal athymic nude mice, mean; for Relative kidney retention, % rel. to DOTA-TATE: normal mice, 111In-DOTA-TATE set as 100%. The procedure: The panel of 10 compounds were then tested in an initial biodistribution screen of 9 organs assessed in non-tumor-bearing mice at specific timepoints following administration of the radioconjugates. Each agent was initially labeled with ^111In, a long-lived gamma-emitting radioisotope suitable for biodistribution studies, with high radiochemical yields and purity (Fig. S12). The compounds were then dosed (1.55 ± 0.12 MBq; 1 μg per mouse) in healthy athymic nude mice via intravenous (i.v.) injection in phosphate-buffered saline (PBS; vehicle). After 2 hours, the mice were sacrificed and ex vivo biodistribution analysis was performed (Fig. 2). […] This was an expected finding because this variant was designed to bind serum albumin.
Radiolabeling and In Vivo Evaluation of DOTA-TATE Variants:
Biodistribution, PET Quantification, and Dosimetry
Radiolabeling: To perform the initial biodistribution screen, radiolabeling of 10 compounds, including DOTA-TATE, was carried out using 111In (Cardinal Health, Arbutus, MD, USA), an affordable and readily available gamma -emitting radioisotope with a moderate half -life (2.83 days), which affords efficient DOTA radiolabeling and facilitates handling. 111InCl3 (28 – 36 MBq) was diluted with 0.4 M NH 4OAc buffer (pH 5.2) and combined with DOTA -TATE variants (20 μg). The solution was mixed well and then incubated at 90 °C for 30 min.
Radiolabeling efficiency and radiochemical purity were determined by radio -TLC and radio - HPLC. Radiochemical yield was >95% and the material was used without further purification.
The specific activity was 1.55 ± 0.12 TBq/g (41.9 ± 3.2 Ci/g). […]
Radio-instant thin-layer chromatography (radio-iTLC) was performed using silicic acid-impregnated glass microfiber paper strips (iTLC-SA, Varian, Lake Forest, CA, USA) as the stationary phase, and 50 mM EDTA in 100 mM NH4OAc (pH 5.5) as the mobile phase, analyzed with a radio-TLC scanner (AR-2000, Eckert-Ziegler, Wilmington, MA, USA). For Ac-225, equilibration was allowed for at least 12 hours before scanning the TLC strips to confirm initial scans. Radio-HPLC analysis (Agilent 1260 Infinity II, Agilent Technologies Inc., Santa Clara, CA, USA) was conducted on a TSK- Octadecyl-4PW column (5 µm, 4.6 mm ID × 15 cm, Tosoh
Co. Tokyo, Japan) with gradient elution using 0.1% trifluoroacetic acid in water as mobile phase A and 0.1% trifluoroacetic acid in acetonitrile as Mobile phase B. The elution sequence was 0-5 […]
PET imaging and biodistribution: For initial biodistribution screen studies, normal mice were administered 1.4 – 1.8 MBq (1 μg) of 111In-DOTA-TATE variants via tail vein injection and biodistribution studies were conducted at 2 hours post -injection (n = 2 – 4 per cohort).
For studies involving three variants (DOTA -TATE, DOTA-MVK(ε)-TATE, and DOTA-β-Gal-TATE), AR42J cells (5 × 10^6 cells per mouse) were subcutaneously inoculated into the right shoulder of the mice. Tumors were allowed to grow for 3 weeks, reaching a volume of 100 –200 mm³ before being used in subsequent experiments. For biodistribution or PET imaging studies, mice bearing subcutaneous AR42J tumors were administered 1.4 – 1.8 MBq (1 μg) of 111In-labeled DOTA-TATE variants or 2.7 – 4.9 MBq (1 μg) of 86Y-labeled DOTA-TATE variants via tail vein injection. Biodistribution studies with 111In-labeled DOTA -TATE variants were performed 1 hour post -injection (n = 3 per cohort), while studies with 86Y-labeled DOTA-TATE variants were conducted at 1, 4, and 24 hours post -injection (n = 3 per cohort). Mice were euthanized by CO2 asphyxiation, and 10 tissues, including tumors, were collected. All samples were weighed and counted on a gamma counter (2480 Wizard 3, Perkin Elmer Inc., Waltham, MA, USA). Results are presented as percentage of injected activity per gram (%IA/g) and mean values ± standard deviations.
PET imaging to assess the uptake of three 86Y-labeled DOTA-TATE variants (2.7 – 4.9 MBq, 1 […]

[3] abbreviates: blood, i.v. 1 μg (1.4–1.8 MBq), ex vivo gamma counting, n = 2–4, read-out: Blood uptake.
Setting [4] is: femur, i.v. 1 μg, ex vivo, n = 2–4, read-out: Femur uptake.
The mark [5] stands for this setting: heart, i.v. 1 μg, ex vivo, n = 2–4, read-out: Heart uptake.
Setting [6] is: intestine, i.v. 1 μg, ex vivo, n = 2–4, read-out: Intestine uptake.
Where [7] appears, read: liver, i.v. 1 μg, ex vivo, n = 2–4, read-out: Liver uptake.
The mark [8] stands for this setting: lung, i.v. 1 μg, ex vivo, n = 2–4, read-out: Lung uptake.
The mark [9] stands for this setting: muscle, i.v. 1 μg, ex vivo, n = 2–4, read-out: Muscle uptake.
Where [10] appears, read: spleen, i.v. 1 μg, ex vivo, n = 2–4, read-out: Spleen uptake.

As to `C[C@@H](O)[C@H](NC(=O)[C@@H]1CSSC[C@H](NC(=O)[C@@H](Cc2ccccc2)NC(=O)CCCC(=O)Nc2cc(COC(=O)N(C)CCNC(=O)CN3CCN(CC(=O)O)CCN(CC(=O)O)CCN(CC(=O)O)CC3)ccc2O[C@@H]2O[C@H](CO)[C@H](O)[C@H](O)[C@H]2O)C(=O)N[C@@H](Cc2ccc(O)cc2)C(=O)N[C@H](Cc2c[nH]c3ccccc23)C(=O)N[C@@H](CCCCN)C(=O)N[C@@H]([C@@H](C)O)C(=O)N1)C(=O)O` [^225Ac-DOTA-β-Gal-TATE, metal not drawn], the “Tubular damage, percentage of mice with grade 0” value in series [1] (kidney H&E after two-cycle regimen, 0–4+ scale (normal, minimal, mild, moderate, marked), n = 6) is listed as 100%. Also, the “Glomerulopathy, percentage of mice with grade 0” value in series [1] (kidney H&E after two-cycle regimen, 0–4+ scale, n = 6) came out at 67%.
As to `CSCC[C@H](NC(=O)CN1CCN(CC(=O)O)CCN(CC(=O)O)CCN(CC(=O)O)CC1)C(=O)N[C@H](C(=O)N[C@@H](CCCCNC(=O)CCCC(=O)N[C@H](Cc1ccccc1)C(=O)N[C@H]1CSSC[C@@H](C(=O)N[C@H](C(=O)O)[C@@H](C)O)NC(=O)[C@H]([C@@H](C)O)NC(=O)[C@H](CCCCN)NC(=O)[C@@H](Cc2c[nH]c3ccccc23)NC(=O)[C@H](Cc2ccc(O)cc2)NC1=O)C(=O)O)C(C)C` [^225Ac-DOTA-MVK(ε)-TATE, metal not drawn], in series [1] (mouse, in vivo), the “Glomerulopathy, percentage of mice with grade 0” value is 50%; the “Glomerulopathy, percentage of mice with grade 1+” value is 50%; the “Mice with mild, focal hepatocyte injury” value is listed as 1 of 6; the “Tubular damage, percentage of mice with grade 0” value was determined as 67%. Moreover, in series [1] (mouse, in vivo), the “Tubular damage, percentage of mice with grade 1+” value was found to be 17% and the “Tubular damage, percentage of mice with grade 3+” value is given as 17%.
For `CSCC[C@H](NC(=O)CN1CCN(CC(=O)O)CCN(CC(=O)O)CCN(CC(=O)O)CC1)C(=O)N[C@H](C(=O)N[C@@H](CCCCNC(=O)CCCC(=O)N[C@H](Cc1ccccc1)C(=O)N[C@H]1CSSC[C@@H](C(=O)N[C@H](C(=O)O)[C@@H](C)O)NC(=O)[C@H]([C@@H](C)O)NC(=O)[C@H](CCCCN)NC(=O)[C@@H](Cc2c[nH]c3ccccc23)NC(=O)[C@H](Cc2ccc(O)cc2)NC1=O)C(=O)O)C(C)C` [^111In-DOTA-MVK(ε)-TATE, metal not drawn], the tissue uptake at 2 h in series [2] (setting [3]) was 0.15 %ID/g; in series [2] (setting [4]), 0.31 %ID/g; in series [2] (setting [5]) it was 0.11 %ID/g; in series [2] (setting [6]), 0.83 %ID/g; in series [2] (setting [7]), 0.16 %ID/g; in series [2] (setting [8]), 0.33 %ID/g. For the same compound, the results for the tissue uptake at 2 h in series [2] (setting [9]) and in series [2] (setting [10]) were 0.06 %ID/g and 0.12 %ID/g, respectively. The “Relative kidney retention, % rel. to DOTA-TATE” value in series [2] came to 67%.
On to `C[C@@H](O)[C@H](NC(=O)[C@@H]1CSSC[C@H](NC(=O)[C@@H](Cc2ccccc2)NC(=O)CN2CCN(CC(=O)O)CCN(CC(=O)O)CCN(CC(=O)O)CC2)C(=O)N[C@@H](Cc2ccc(O)cc2)C(=O)N[C@H](Cc2c[nH]c3ccccc23)C(=O)N[C@@H](CCCCN)C(=O)N[C@@H]([C@@H](C)O)C(=O)N1)C(=O)O` [^111In-DOTA-TATE, metal not drawn, reference compound], for which the tissue uptake at 2 h in series [2] (setting [3]) stood at 0.04 %ID/g; in series [2] (setting [4]), 0.05 %ID/g; in series [2] (setting [5]) it was 0.03 %ID/g; in series [2] (setting [6]), 0.51 %ID/g; in series [2] (setting [7]) it was 0.09 %ID/g; in series [2] (setting [8]), 0.18 %ID/g. Moreover, the results for the tissue uptake at 2 h in series [2] (setting [9]) and in series [2] (setting [10]) were 0.01 %ID/g and 0.06 %ID/g, respectively.
As for `C[C@@H](O)[C@H](NC(=O)[C@@H]1CSSC[C@H](NC(=O)[C@@H](Cc2ccccc2)NC(=O)CCCC(=O)Nc2cc(COC(=O)N(C)CCNC(=O)CN3CCN(CC(=O)O)CCN(CC(=O)O)CCN(CC(=O)O)CC3)ccc2O[C@@H]2O[C@H](CO)[C@H](O)[C@H](O)[C@H]2O)C(=O)N[C@@H](Cc2ccc(O)cc2)C(=O)N[C@H](Cc2c[nH]c3ccccc23)C(=O)N[C@@H](CCCCN)C(=O)N[C@@H]([C@@H](C)O)C(=O)N1)C(=O)O` [^111In-DOTA-β-Gal-TATE, metal not drawn], the tissue uptake at 2 h in series [2] (in vivo, i.v. 1 μg (1.4–1.8 MBq), ex vivo gamma counting, n = 2–4, read-out: Blood uptake) was 0.04 %ID/g; in series [2] (in vivo, i.v. 1 μg, ex vivo, n = 2–4, read-out: Femur uptake) it was 0.07 %ID/g; in series [2] (in vivo, i.v. 1 μg, ex vivo, n = 2–4, read-out: Heart uptake) it was 0.03 %ID/g; in series [2] (in vivo, i.v. 1 μg, ex vivo, n = 2–4, read-out: Intestine uptake), 0.49 %ID/g; in series [2] (in vivo, i.v. 1 μg, ex vivo, n = 2–4, read-out: Liver uptake), 0.11 %ID/g; in series [2] (in vivo, i.v. 1 μg, ex vivo, n = 2–4, read-out: Lung uptake), 0.28 %ID/g. Moreover, the tissue uptake at 2 h in series [2] (in vivo, i.v. 1 μg, ex vivo, n = 2–4, read-out: Muscle uptake) was 0.02 %ID/g; in series [2] (in vivo, i.v. 1 μg, ex vivo, n = 2–4, read-out: Spleen uptake), 0.08 %ID/g. In series [2], the “Relative kidney retention, % rel. to DOTA-TATE” value was 67%.
